Assay results as given in PMC10256718.

Biological target: Quinol-dependent nitric oxide reductase from Alcaligenes xylosoxidans (His-tagged AxqNOR-BRIL) (Alcaligenes xylosoxidans)
Test: cryo-EM structure; single-particle cryoEM, 2.2 Å, refined in C2 symmetry; sample at 3 mg/mL in Tris-HCl buffer pH 7.0, 150 mM NaCl, 0.05% DTM; dimer

Quinol-dependent nitric oxide reductase from Alcaligenes xylosoxidans (His-tagged AxqNOR-BRIL) (enzyme)
stoichiometry N: 2
